Laboratory results as given in paper PMC5678113, “Substrate Specificity and Allosteric Regulation of a D-Lactate Dehydrogenase from a Unicellular Cyanobacterium are Altered by an Amino Acid Substitution” (Scientific Reports, 2017).
Positions count from the first letter of the chain named. Names and notes keep the numbering of the source.

Key:
Assay in all cases: NADH oxidation followed at A340
[1] = target: T1, SyDdh (GST-SyDdh) (Synechocystis sp. PCC 6803, UniProt P74586); type: biochemical; settings: for remaining activity at 2500 µM: read-out: % residual activity at 2.5 mM
T1 construct: gene ddh; Full ddh ORF, GST-tagged (tag kept, pGEX5X-1), expressed in E. coli DH5alpha, glutathione-Sepharose purified
T1 sequence (P74586 1-333): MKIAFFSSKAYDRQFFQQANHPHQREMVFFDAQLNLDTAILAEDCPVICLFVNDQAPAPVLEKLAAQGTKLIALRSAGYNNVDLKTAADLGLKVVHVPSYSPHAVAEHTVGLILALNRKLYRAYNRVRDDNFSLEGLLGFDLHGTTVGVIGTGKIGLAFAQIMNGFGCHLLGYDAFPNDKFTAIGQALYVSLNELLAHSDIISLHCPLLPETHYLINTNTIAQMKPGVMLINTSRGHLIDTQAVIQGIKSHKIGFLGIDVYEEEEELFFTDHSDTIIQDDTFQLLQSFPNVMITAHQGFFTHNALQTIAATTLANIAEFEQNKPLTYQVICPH

[2] = target: T2, SyDdh (GST-SyDdh) (Synechocystis sp. PCC 6803, UniProt P74586, Q14E); type: biochemical; settings: pH 7.5, 30 °C, 0.1 mM NADH, no Mg2+; substrate inhibition
T2 construct: gene ddh; Full ddh ORF, GST-tagged (tag kept, pGEX5X-1), expressed in E. coli DH5alpha, glutathione-Sepharose purified
Source text: (§1) NADH oxidation followed at A340 on SyDdh (GST-SyDdh)

[3] = target: T3, SyDdh (GST-SyDdh) (Synechocystis sp. PCC 6803, UniProt P74586, S234G); type: biochemical; settings: pH 7.5, 30 °C, 0.1 mM NADH, no Mg2+; substrate inhibition
T3 construct: gene ddh; Full ddh ORF, GST-tagged (tag kept, pGEX5X-1), expressed in E. coli DH5alpha, glutathione-Sepharose purified
Source text: as §1

[4] = target: T1, SyDdh (GST-SyDdh); type: biochemical; settings: pH 7.5, 30 °C, 0.1 mM NADH, no Mg2+; substrate inhibition
Source text: as §1

[5] = substrate: CC(=O)C(=O)O; type: biochemical, Synechocystis sp. PCC 6803; settings: pH 7.5, 30 °C, 0.1 mM NADH, no Mg2+, Hill coefficient 2.51
[6] = substrate: NC(=O)C1=CN([C@@H]2O[C@H](COP(=O)(O)OP(=O)(O)OC[C@H]3O[C@@H](n4cnc5c(N)ncnc54)[C@H](O)[C@@H]3O)[C@@H](O)[C@H]2O)C=CC1; type: biochemical, Synechocystis sp. PCC 6803; settings: pH 7.5, 30 °C, varied: cofactor
[7] = substrate: O=C(O)CC(=O)C(=O)O; type: biochemical, Synechocystis sp. PCC 6803; settings: pH 7.5, 30 °C, 0.1 mM NADH, no Mg2+
Source text: as §1

[8] = substrate: CC(=O)C(=O)O; type: biochemical, Synechocystis sp. PCC 6803; settings: pH 7.5, 30 °C, 0.1 mM NADH, no Mg2+
Source text: as §1

T3 sequence (P74586 entry or part of it S234G): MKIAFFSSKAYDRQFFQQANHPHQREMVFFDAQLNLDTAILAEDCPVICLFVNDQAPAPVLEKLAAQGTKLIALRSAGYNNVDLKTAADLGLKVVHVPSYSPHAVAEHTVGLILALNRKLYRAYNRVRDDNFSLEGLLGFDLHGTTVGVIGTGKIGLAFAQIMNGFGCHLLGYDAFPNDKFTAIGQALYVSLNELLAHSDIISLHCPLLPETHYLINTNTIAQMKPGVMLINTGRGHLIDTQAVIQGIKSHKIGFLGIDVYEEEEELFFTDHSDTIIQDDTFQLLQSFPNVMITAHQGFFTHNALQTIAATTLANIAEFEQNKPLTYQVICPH
T2 sequence (P74586 entry or part of it Q14E): as the sequence (P74586 entry or part of it S234G) above, with Q14E, G234S counted along it

Molecule `NC(=O)C(=O)O` [oxamate] has a remaining activity at 2500 µM [1] of 42%.

`O=P(O)(O)OC[C@H]1OC(O)(COP(=O)(O)O)[C@@H](O)[C@@H]1O` (some centres unmarked) [FBP] showed an activity at 2500 µM ([1]; read-out: % activity at 2.5 mM) of 134%.

`CC(=O)C(=O)O` [pyruvate] was tested, and the “K i” value [2] was 16.51 ± 5.98 mM.

`Nc1ncnc2c1ncn2[C@@H]1O[C@H](COP(=O)(O)OP(=O)(O)OP(=O)(O)O)[C@@H](O)[C@H]1O` [ATP] was tested, and the remaining activity at 2500 µM [1] was 72%.

In the case of `O=C(O)CC(=O)C(=O)O` [oxaloacetate], the “K i” value [3] is reported as 5.74 ± 1.04 mM and the “K i” value [4] is reported as 8.56 ± 3.39 mM.

B1: SyDdh (GST-SyDdh) (Synechocystis sp. PCC 6803 substr. Kazusa) (protein)
chain: T1 sequence (P74586 1-333)
notes: Full ddh ORF, GST-tagged (tag kept, pGEX5X-1), expressed in E. coli DH5alpha, glutathione-Sepharose purified
With B1 the K0.5 [5] was 0.38 ± 0.04 mM, the kcat [5] was 2.71 ± 0.26 s⁻¹ and the kcat/Km [5] was 7140 ± 1150 M⁻¹ s⁻¹. The K0.5 [6] was 0.028 ± 0.002 mM and the kcat [6] was 2.60 ± 0.25 s⁻¹.

B2: SyDdh (GST-SyDdh) (Synechocystis sp. PCC 6803 substr. Kazusa; S234G) (protein)
chain: T1 sequence (P74586 1-333) with S234G
notes: as for B1
B2 gave a K0.5 ([7]; substrate-inhibition fit) of 0.59 ± 0.05 mM, a kcat ([7]; substrate-inhibition fit) of 1.27 ± 0.24 s⁻¹ and a kcat/Km ([7]; substrate-inhibition fit) of 2190 ± 520 M⁻¹ s⁻¹. The K0.5 ([8]; Hill coefficient 1.64) was 2.10 ± 0.18 mM, the kcat ([8]; Hill coefficient 1.64) was 1.71 ± 0.26 s⁻¹ and the kcat/Km ([8]; Hill coefficient 1.64) was 820 ± 130 M⁻¹ s⁻¹.

B3: SyDdh (GST-SyDdh) (Synechocystis sp. PCC 6803 substr. Kazusa; Q14E) (protein)
chain: T1 sequence (P74586 1-333) with Q14E
notes: as for B1
For B3, the K0.5 ([7]; Hill coefficient 0.95) was 1.71 ± 0.38 mM, the kcat ([7]; Hill coefficient 0.95) was 2.38 ± 0.1 s⁻¹ and the kcat/Km ([7]; Hill coefficient 0.95) was 1460 ± 310 M⁻¹ s⁻¹. The K0.5 ([8]; substrate-inhibition fit) was 0.52 ± 0.10 mM, the kcat ([8]; substrate-inhibition fit) was 4.11 ± 0.71 s⁻¹ and the kcat/Km ([8]; substrate-inhibition fit) was 7980 ± 350 M⁻¹ s⁻¹.
